For six sequences, activity results are on record in patent publication US20220396813.

Changes are numbered by the printed parent chain.

Common to all, as to assay: cell_activity
Data set [1] relates to T1, Rec7 WP_005715799.1 (Aggregatibacter segnis).
T1 sequence: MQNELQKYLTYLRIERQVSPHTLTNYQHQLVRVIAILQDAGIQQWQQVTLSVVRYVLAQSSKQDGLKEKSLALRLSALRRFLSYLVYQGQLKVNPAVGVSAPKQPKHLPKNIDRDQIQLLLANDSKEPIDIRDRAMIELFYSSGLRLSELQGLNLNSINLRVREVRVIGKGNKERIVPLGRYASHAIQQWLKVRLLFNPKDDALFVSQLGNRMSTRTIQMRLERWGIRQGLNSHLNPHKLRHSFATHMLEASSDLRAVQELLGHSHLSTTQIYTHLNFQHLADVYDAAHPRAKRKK
Conditions: HEK293T inversion; background 0.2565.

Data set [2] has as its system T2, Rec6 WP_006717195.1 (Aggregatibacter segnis).
T2 sequence: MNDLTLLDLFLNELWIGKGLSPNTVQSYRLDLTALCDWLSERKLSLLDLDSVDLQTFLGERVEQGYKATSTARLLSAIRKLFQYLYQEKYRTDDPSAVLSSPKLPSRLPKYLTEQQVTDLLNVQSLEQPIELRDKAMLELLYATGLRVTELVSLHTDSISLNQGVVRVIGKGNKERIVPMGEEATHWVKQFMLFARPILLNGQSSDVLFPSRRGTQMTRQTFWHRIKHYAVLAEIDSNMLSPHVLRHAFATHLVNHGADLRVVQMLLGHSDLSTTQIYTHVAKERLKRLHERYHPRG
The settings on record: HEK293T inversion; background 0.2565.

The test system of data set [3] is T3, Rec2 WP_006717173.1 (Aggregatibacter segnis).
T3 sequence: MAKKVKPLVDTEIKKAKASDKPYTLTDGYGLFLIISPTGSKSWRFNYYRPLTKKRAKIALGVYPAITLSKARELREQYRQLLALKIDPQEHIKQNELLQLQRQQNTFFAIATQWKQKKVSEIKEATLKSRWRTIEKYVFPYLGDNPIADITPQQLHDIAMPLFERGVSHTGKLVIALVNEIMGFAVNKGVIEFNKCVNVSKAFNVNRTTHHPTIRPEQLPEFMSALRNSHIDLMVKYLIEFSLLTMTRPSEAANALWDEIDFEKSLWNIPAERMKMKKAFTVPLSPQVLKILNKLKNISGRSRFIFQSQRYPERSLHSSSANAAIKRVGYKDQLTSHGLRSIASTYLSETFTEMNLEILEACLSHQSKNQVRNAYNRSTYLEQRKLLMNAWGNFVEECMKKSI
The settings on record: HEK293T inversion; background 0.2565; repeat 0.27 vs 0.265.

Data set [4] relates to T4, Rec4 WP_006719234.1 (Aggregatibacter segnis).
T4 sequence: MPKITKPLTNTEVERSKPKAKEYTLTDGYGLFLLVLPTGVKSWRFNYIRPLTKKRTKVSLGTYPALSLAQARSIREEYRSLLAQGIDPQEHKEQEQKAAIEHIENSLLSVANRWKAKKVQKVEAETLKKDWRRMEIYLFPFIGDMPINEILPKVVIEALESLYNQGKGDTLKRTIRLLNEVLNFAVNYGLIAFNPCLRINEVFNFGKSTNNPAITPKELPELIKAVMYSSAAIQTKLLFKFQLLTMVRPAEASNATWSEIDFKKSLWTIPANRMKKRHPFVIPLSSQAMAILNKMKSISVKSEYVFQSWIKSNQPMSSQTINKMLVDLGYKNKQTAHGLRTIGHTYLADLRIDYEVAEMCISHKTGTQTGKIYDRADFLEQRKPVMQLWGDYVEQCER
Conditions: HEK293T inversion; background 0.2565.

Data set [5] concerns T5, Rec5 WP_109859198.1 (Aggregatibacter segnis).
T5 sequence: T2 sequence with S40G, N201D
The settings on record: HEK293T inversion; background 0.265.

For data set [6], the system named is T6, Rec3 WP_006718580.1 (Aggregatibacter segnis).
T6 sequence: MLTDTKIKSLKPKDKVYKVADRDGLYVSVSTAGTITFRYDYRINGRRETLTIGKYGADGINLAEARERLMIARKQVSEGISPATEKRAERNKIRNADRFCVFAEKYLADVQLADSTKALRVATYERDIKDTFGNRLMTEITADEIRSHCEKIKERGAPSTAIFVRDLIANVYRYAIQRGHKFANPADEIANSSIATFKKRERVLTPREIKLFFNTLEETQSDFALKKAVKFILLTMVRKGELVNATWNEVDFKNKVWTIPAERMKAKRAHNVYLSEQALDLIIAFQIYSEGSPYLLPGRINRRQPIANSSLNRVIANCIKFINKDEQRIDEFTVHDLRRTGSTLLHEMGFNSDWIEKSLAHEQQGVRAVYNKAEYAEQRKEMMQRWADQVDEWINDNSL
The settings on record: HEK293T inversion; background 0.2565.

The test system of data set [7] is T7, Rec10 WP_017746151.1 (Scytonema hofmannii).
T7 sequence: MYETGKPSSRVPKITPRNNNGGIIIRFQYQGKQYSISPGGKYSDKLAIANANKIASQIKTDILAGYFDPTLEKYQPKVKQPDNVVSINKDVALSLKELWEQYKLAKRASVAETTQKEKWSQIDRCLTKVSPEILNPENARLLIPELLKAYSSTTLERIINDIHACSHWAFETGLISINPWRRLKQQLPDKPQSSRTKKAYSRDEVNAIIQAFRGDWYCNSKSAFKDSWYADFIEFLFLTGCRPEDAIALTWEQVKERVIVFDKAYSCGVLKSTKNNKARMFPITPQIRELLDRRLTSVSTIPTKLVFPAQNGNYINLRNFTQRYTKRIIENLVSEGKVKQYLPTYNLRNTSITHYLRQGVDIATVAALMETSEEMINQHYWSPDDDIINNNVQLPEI
The settings on record: HEK293T inversion; background 0.264.

Data set [8] concerns T8, Rec8 WP_017740000.1 (Scytonema hofmannii).
T8 sequence: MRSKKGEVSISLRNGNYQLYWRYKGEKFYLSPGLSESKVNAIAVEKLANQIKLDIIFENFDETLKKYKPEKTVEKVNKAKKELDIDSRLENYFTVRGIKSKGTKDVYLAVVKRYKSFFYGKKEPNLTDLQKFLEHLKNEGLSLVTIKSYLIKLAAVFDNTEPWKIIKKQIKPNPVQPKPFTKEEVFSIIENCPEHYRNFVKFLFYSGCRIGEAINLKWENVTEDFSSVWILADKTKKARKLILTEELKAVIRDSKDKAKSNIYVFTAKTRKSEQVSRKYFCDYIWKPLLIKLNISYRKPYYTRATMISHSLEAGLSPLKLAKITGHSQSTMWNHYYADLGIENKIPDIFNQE
The settings on record: HEK293T inversion; background 0.264.

The test system of data set [9] is T9, Rec9 WP_017744257.1 (Scytonema hofmannii).
T9 sequence: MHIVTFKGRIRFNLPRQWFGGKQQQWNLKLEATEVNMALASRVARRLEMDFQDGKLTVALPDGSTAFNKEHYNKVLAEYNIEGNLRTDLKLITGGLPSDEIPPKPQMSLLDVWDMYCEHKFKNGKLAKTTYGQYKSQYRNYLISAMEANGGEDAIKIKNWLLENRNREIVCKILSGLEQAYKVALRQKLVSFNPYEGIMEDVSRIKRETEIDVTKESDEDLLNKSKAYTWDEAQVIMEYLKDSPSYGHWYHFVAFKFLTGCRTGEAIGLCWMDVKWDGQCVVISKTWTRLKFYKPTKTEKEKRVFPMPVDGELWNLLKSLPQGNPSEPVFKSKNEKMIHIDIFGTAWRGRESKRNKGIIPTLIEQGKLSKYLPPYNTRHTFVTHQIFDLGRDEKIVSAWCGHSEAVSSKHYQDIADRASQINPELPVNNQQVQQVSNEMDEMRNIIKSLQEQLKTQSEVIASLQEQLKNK
Conditions: HEK293T inversion; background 0.264.

Data set [10] concerns T10, Rec11 WP_038150996.1 (Veillonella montpellierensis).
T10 sequence: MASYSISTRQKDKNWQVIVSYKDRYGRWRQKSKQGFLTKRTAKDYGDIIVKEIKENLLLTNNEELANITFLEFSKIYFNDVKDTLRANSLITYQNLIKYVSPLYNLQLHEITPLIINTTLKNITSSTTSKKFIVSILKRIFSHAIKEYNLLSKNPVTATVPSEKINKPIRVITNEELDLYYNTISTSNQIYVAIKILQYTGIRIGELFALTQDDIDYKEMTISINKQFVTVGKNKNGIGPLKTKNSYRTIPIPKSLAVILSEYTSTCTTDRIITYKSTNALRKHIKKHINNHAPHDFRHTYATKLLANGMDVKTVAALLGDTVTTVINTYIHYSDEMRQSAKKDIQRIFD
The settings on record: HEK293T inversion; background 0.07465.

Data set [11] concerns T11, Rec12 WP_038150898.1 (Veillonella montpellierensis).
T11 sequence: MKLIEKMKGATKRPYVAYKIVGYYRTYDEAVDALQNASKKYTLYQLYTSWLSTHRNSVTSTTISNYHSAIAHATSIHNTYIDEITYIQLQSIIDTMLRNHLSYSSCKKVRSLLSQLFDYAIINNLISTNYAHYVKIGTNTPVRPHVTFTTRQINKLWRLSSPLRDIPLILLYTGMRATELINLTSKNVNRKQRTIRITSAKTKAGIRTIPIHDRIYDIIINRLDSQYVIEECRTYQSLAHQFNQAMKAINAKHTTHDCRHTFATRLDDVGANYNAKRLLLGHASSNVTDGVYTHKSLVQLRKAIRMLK
Conditions: HEK293T inversion; background 0.07465.

Data set [12] deals with T12, Rec27 WP_021170377.1 (Sporomusa sp.).
T12 sequence: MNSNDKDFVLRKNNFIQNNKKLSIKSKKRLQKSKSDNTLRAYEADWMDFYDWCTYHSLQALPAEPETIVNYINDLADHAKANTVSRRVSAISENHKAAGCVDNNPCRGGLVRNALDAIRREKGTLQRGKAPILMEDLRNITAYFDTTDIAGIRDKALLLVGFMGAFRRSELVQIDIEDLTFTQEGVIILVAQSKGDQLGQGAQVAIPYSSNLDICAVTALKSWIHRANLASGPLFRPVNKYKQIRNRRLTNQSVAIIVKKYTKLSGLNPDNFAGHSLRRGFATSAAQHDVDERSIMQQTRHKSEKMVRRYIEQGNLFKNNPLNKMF
Conditions: HEK293T inversion; background 6.51.

Data set [13] has as its system T13, Rec13 WP_126045042.1 (Candidatus Aquarickettsia).
T13 sequence: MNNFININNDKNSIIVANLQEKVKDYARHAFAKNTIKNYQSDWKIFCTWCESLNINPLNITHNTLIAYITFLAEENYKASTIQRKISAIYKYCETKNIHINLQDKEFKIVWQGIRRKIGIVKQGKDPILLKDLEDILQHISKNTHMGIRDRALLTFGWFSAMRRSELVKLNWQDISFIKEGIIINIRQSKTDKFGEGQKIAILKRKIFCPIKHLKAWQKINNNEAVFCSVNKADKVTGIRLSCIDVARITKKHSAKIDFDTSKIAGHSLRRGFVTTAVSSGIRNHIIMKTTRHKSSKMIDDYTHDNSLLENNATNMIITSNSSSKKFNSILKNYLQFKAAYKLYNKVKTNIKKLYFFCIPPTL
The settings on record: HEK293T inversion; background 5.795.

Data set [14] deals with T14, Rec15 XP_012333305.1 (Plasmodium fragile).
T14 sequence: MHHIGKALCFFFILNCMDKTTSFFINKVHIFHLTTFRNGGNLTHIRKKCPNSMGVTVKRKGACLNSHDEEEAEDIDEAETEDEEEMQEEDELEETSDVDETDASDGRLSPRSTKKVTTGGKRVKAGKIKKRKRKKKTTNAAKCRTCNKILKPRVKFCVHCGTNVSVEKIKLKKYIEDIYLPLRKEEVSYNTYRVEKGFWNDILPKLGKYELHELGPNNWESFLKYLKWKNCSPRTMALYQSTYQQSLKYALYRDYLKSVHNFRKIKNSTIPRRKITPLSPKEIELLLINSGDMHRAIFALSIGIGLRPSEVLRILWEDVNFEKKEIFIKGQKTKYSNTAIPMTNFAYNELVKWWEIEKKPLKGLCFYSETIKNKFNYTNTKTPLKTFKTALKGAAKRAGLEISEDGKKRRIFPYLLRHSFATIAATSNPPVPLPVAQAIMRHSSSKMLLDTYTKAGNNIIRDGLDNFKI
Conditions: HEK293T inversion; background 2.178.

As for “AATAAAGGGAATNNNNNNNNATTCCCTTTATT (double strand) [Rec2-7 natural site]”, the activity in data set [1] stood at 0.108 % GFP+; in data set [2], 0.135 % GFP+; in data set [3], 0.133 % GFP+; in data set [4], 0.134 % GFP+; in data set [5] it was 0.195 % GFP+; in data set [6], 0.096 % GFP+.

“CAATTTTTGAAANNNNNNNTTTCAAAAATTG (double strand) [Rec8-10 natural site]”: the activity is 0.168 % GFP+ in data set [7], 0.165 % GFP+ in data set [8] and 0.133 % GFP+ in [9].

On to “CACTGATATATANNNNNNNTATATATCAGTG (double strand) [Rec11-12 natural site]”, for which the activity in data set [10] came to 0.0237 % GFP+; in data set [11], 0.031 % GFP+.

In data set [12], “TAACTAATGATANNNNNNNNNTATCACTAGTTG (double strand) [Rec27 natural site]” had an activity of 62.7 % GFP+.

“TAATGTTCTATANNNNNNNNTATAAAACACTA (double strand) [Rec13 natural site]” showed an activity in data set [13] of 4.46 % GFP+.

In turn, “TGCATATACATANNNNNNNNTATATATATGTA (double strand) [Rec15 natural site]” showed an activity in data set [14] of 5.91 % GFP+.
